Measurements as given in patent publication US20230346961A1, “GLP-1 AND GIP RECEPTOR CO-AGONISTS” (Novo Nordisk A/S, priority 2020, published 2023).
Starred links: 1 amine or outer side, 2 acyl side, 3 side chain; linkers in the order of their positions; H or OH if unused. Non-standard residues stand in square brackets, D forms with d. Groups on a side chain read outwards from the residue. No end group written: not given here. *: point of attachment. C18 diacid = O=C(O)CCCCCCCCCCCCCCCCC(=O)*; γGlu = O=C(O)[C@H](CCC(=O)[*:2])N[*:1]; εLys = N[C@@H](CCCCN[*:1])C(=O)[*:2]; AEEA = NCCOCCOCC(=O)O; Aib = CC(C)(N)C(=O)O

T1: human glucose-dependent insulinotropic polypeptide receptor (human) (UniProt P48546)
T1 sequence (looked up): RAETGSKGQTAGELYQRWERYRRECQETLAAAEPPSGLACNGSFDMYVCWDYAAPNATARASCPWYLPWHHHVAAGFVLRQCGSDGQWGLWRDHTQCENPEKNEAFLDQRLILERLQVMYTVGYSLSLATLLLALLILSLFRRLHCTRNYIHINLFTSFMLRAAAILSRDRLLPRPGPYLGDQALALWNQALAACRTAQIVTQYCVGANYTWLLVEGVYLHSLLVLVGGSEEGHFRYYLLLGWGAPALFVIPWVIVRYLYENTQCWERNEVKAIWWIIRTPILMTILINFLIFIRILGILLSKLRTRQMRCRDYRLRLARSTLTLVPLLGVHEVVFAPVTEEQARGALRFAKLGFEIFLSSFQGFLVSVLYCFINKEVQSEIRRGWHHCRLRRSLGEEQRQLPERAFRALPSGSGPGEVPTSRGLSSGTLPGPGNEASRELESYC

T2: mouse glucose-dependent insulinotropic polypeptide receptor (mouse) (UniProt Q0P543)
T2 sequence (looked up): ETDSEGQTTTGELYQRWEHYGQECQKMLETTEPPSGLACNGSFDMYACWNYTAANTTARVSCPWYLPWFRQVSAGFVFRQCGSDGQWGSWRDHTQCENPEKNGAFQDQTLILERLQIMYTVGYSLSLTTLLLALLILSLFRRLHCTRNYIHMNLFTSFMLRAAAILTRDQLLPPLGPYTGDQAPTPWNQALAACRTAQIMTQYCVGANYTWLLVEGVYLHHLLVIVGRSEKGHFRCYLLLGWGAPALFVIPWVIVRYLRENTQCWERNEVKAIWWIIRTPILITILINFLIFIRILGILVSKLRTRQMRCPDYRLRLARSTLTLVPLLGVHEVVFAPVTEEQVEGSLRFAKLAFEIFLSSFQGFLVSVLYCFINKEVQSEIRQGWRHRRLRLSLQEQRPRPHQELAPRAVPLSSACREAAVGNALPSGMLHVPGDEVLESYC

T3: mouse glucagon-like peptide 1 receptor (mouse, UniProt O35659 22-463)
T3 sequence (looked up): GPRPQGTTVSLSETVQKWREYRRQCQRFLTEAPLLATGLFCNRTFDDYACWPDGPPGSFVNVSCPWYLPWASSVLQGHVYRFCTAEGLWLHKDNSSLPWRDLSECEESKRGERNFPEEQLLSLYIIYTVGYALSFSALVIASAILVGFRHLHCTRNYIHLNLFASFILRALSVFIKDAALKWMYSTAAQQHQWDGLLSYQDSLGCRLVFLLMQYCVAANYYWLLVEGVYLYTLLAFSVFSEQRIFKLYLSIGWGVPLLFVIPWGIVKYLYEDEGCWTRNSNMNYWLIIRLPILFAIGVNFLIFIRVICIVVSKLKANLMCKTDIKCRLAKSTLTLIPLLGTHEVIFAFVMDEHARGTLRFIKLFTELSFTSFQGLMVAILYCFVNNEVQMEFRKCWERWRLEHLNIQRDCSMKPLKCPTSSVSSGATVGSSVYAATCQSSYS

T4: mouse glucose-dependent insulinotropic polypeptide receptor (mouse, UniProt Q0P543 19-460)
T4 sequence (looked up): T2 sequence (looked up)

T5: human glucose-dependent insulinotropic polypeptide receptor (human, UniProt P48546 22-466)
T5 sequence (looked up): T1 sequence (looked up)

B1: Compound #6 (peptide)
peptide: Y[Aib]EGTFTSDYSIYLDKQAA[Aib]K([γGlu-γGlu-γGlu-C18 diacid])FVNWLLAGGPSSGAPPPS-NH2
modifications: N-terminus assumed
SMILES: CC[C@H](C)[C@H](NC(=O)[C@H](CO)NC(=O)[C@H](Cc1ccc(O)cc1)NC(=O)[C@H](CC(=O)O)NC(=O)[C@H](CO)NC(=O)[C@@H](NC(=O)[C@H](Cc1ccccc1)NC(=O)[C@@H](NC(=O)CNC(=O)[C@H](CCC(=O)O)NC(=O)C(C)(C)NC(=O)[C@@H](N)Cc1ccc(O)cc1)[C@@H](C)O)[C@@H](C)O)C(=O)N[C@@H](Cc1ccc(O)cc1)C(=O)N[C@@H](CC(C)C)C(=O)N[C@@H](CC(=O)O)C(=O)N[C@@H](CCCCN)C(=O)N[C@@H](CCC(N)=O)C(=O)N[C@@H](C)C(=O)N[C@@H](C)C(=O)NC(C)(C)C(=O)N[C@@H](CCCCNC(=O)CC[C@H](NC(=O)CC[C@H](NC(=O)CC[C@H](NC(=O)CCCCCCCCCCCCCCCCC(=O)O)C(=O)O)C(=O)O)C(=O)O)C(=O)N[C@@H](Cc1ccccc1)C(=O)N[C@H](C(=O)N[C@@H](CC(N)=O)C(=O)N[C@@H](Cc1c[nH]c2ccccc12)C(=O)N[C@@H](CC(C)C)C(=O)N[C@@H](CC(C)C)C(=O)N[C@@H](C)C(=O)NCC(=O)NCC(=O)N1CCC[C@H]1C(=O)N[C@@H](CO)C(=O)N[C@@H](CO)C(=O)NCC(=O)N[C@@H](C)C(=O)N1CCC[C@H]1C(=O)N1CCC[C@H]1C(=O)N1CCC[C@H]1C(=O)N[C@@H](CO)C(N)=O)C(C)C
B2: Compound #9 (peptide)
peptide: Y[Aib]EGTFTSDYSIYLDKQAA[Aib]K([εLys-εLys-γGlu-C18 diacid])FVNWLLAGGPSSGAPPPS-NH2
modifications: N-terminus assumed
SMILES: CC[C@H](C)[C@H](NC(=O)[C@H](CO)NC(=O)[C@H](Cc1ccc(O)cc1)NC(=O)[C@H](CC(=O)O)NC(=O)[C@H](CO)NC(=O)[C@@H](NC(=O)[C@H](Cc1ccccc1)NC(=O)[C@@H](NC(=O)CNC(=O)[C@H](CCC(=O)O)NC(=O)C(C)(C)NC(=O)[C@@H](N)Cc1ccc(O)cc1)[C@@H](C)O)[C@@H](C)O)C(=O)N[C@@H](Cc1ccc(O)cc1)C(=O)N[C@@H](CC(C)C)C(=O)N[C@@H](CC(=O)O)C(=O)N[C@@H](CCCCN)C(=O)N[C@@H](CCC(N)=O)C(=O)N[C@@H](C)C(=O)N[C@@H](C)C(=O)NC(C)(C)C(=O)N[C@@H](CCCCNC(=O)[C@@H](N)CCCCNC(=O)[C@@H](N)CCCCNC(=O)CC[C@H](NC(=O)CCCCCCCCCCCCCCCCC(=O)O)C(=O)O)C(=O)N[C@@H](Cc1ccccc1)C(=O)N[C@H](C(=O)N[C@@H](CC(N)=O)C(=O)N[C@@H](Cc1c[nH]c2ccccc12)C(=O)N[C@@H](CC(C)C)C(=O)N[C@@H](CC(C)C)C(=O)N[C@@H](C)C(=O)NCC(=O)NCC(=O)N1CCC[C@H]1C(=O)N[C@@H](CO)C(=O)N[C@@H](CO)C(=O)NCC(=O)N[C@@H](C)C(=O)N1CCC[C@H]1C(=O)N1CCC[C@H]1C(=O)N1CCC[C@H]1C(=O)N[C@@H](CO)C(N)=O)C(C)C
B3: Compound #8 (peptide)
peptide: Ac-[dY]AEGTFTSDYSIYLDKQAA[Aib]K([εLys-εLys-γGlu-C18 diacid])FVNWLLAGGPSSGAPPPS-NH2
SMILES: CC[C@H](C)[C@H](NC(=O)[C@H](CO)NC(=O)[C@H](Cc1ccc(O)cc1)NC(=O)[C@H](CC(=O)O)NC(=O)[C@H](CO)NC(=O)[C@@H](NC(=O)[C@H](Cc1ccccc1)NC(=O)[C@@H](NC(=O)CNC(=O)[C@H](CCC(=O)O)NC(=O)[C@H](C)NC(=O)[C@@H](Cc1ccc(O)cc1)NC(C)=O)[C@@H](C)O)[C@@H](C)O)C(=O)N[C@@H](Cc1ccc(O)cc1)C(=O)N[C@@H](CC(C)C)C(=O)N[C@@H](CC(=O)O)C(=O)N[C@@H](CCCCN)C(=O)N[C@@H](CCC(N)=O)C(=O)N[C@@H](C)C(=O)N[C@@H](C)C(=O)NC(C)(C)C(=O)N[C@@H](CCCCNC(=O)[C@@H](N)CCCCNC(=O)[C@@H](N)CCCCNC(=O)CC[C@H](NC(=O)CCCCCCCCCCCCCCCCC(=O)O)C(=O)O)C(=O)N[C@@H](Cc1ccccc1)C(=O)N[C@H](C(=O)N[C@@H](CC(N)=O)C(=O)N[C@@H](Cc1c[nH]c2ccccc12)C(=O)N[C@@H](CC(C)C)C(=O)N[C@@H](CC(C)C)C(=O)N[C@@H](C)C(=O)NCC(=O)NCC(=O)N1CCC[C@H]1C(=O)N[C@@H](CO)C(=O)N[C@@H](CO)C(=O)NCC(=O)N[C@@H](C)C(=O)N1CCC[C@H]1C(=O)N1CCC[C@H]1C(=O)N1CCC[C@H]1C(=O)N[C@@H](CO)C(N)=O)C(C)C
B4: Compound #7 (peptide)
peptide: Ac-[dY]AEGTFTSDYSIYLDKQAA[Aib]K([AEEA-AEEA-γGlu-C18 diacid])FVNWLLAGGPSSGAPPPS-NH2
SMILES: CC[C@H](C)[C@H](NC(=O)[C@H](CO)NC(=O)[C@H](Cc1ccc(O)cc1)NC(=O)[C@H](CC(=O)O)NC(=O)[C@H](CO)NC(=O)[C@@H](NC(=O)[C@H](Cc1ccccc1)NC(=O)[C@@H](NC(=O)CNC(=O)[C@H](CCC(=O)O)NC(=O)[C@H](C)NC(=O)[C@@H](Cc1ccc(O)cc1)NC(C)=O)[C@@H](C)O)[C@@H](C)O)C(=O)N[C@@H](Cc1ccc(O)cc1)C(=O)N[C@@H](CC(C)C)C(=O)N[C@@H](CC(=O)O)C(=O)N[C@@H](CCCCN)C(=O)N[C@@H](CCC(N)=O)C(=O)N[C@@H](C)C(=O)N[C@@H](C)C(=O)NC(C)(C)C(=O)N[C@@H](CCCCNC(=O)COCCOCCNC(=O)COCCOCCNC(=O)CC[C@H](NC(=O)CCCCCCCCCCCCCCCCC(=O)O)C(=O)O)C(=O)N[C@@H](Cc1ccccc1)C(=O)N[C@H](C(=O)N[C@@H](CC(N)=O)C(=O)N[C@@H](Cc1c[nH]c2ccccc12)C(=O)N[C@@H](CC(C)C)C(=O)N[C@@H](CC(C)C)C(=O)N[C@@H](C)C(=O)NCC(=O)NCC(=O)N1CCC[C@H]1C(=O)N[C@@H](CO)C(=O)N[C@@H](CO)C(=O)NCC(=O)N[C@@H](C)C(=O)N1CCC[C@H]1C(=O)N1CCC[C@H]1C(=O)N1CCC[C@H]1C(=O)N[C@@H](CO)C(N)=O)C(C)C

Legend:
Test in all cases: cell-based or functional assay
[1] = target: T1, human glucose-dependent insulinotropic polypeptide receptor (human)
[2] = target: T2, mouse glucose-dependent insulinotropic polypeptide receptor (mouse)
[3] = target: T3, mouse glucagon-like peptide 1 receptor
[4] = target: T4, mouse glucose-dependent insulinotropic …
[5] = target: human glucagon-like peptide 1 receptor (human, UniProt P43220 24-463)
[6] = target: T5, human glucose-dependent insulinotropic …
human glucagon receptor = human glucagon receptor (human, UniProt P47871 26-477)

Molecule	hGIPR, CRE Luc 0% HSA EC50 [1] [nM]	hGIPR, CRE Luc 1% HSA EC50 [1] [nM]	mGIPR, CRE Luc EC50 [2] [nM]	mGLP-1R, CRE Luc EC50 [3] [nM]	mGIPR, CRE Luc EC50 [4] [nM]	hGLP-1R, CRE Luc 0% HSA EC50 [5] [nM]	hGLP-1R, CRE Luc 1% HSA EC50 [5] [nM]	hGIPR, CRE Luc 0% HSA EC50 [6] [nM]	hGIPR, CRE Luc 1% HSA EC50 [6] [nM]	hGcgR, CRE Luc EC50 (human glucagon receptor) [nM]
human GIP (from UniProt P09681 52-93) (ligand)	0.0085	0.0038								
mouse GIP (from UniProt P48756 44-85) (ligand)			0.0354							
B1				0.0023	1.27	0.0059	0.244	0.0081	0.101	
B2				0.0025	0.068	0.0067	0.11	0.0116	0.135	> 10
B3				0.017	0.0233	0.0299	0.699	0.0047	0.0341	
B4				0.0174	0.0425	0.0557	1.73	0.0033	0.0493	
